Data as given in article PMC9844003 (2023).

Experiments:
[1] = biological target: T1, cell-surface CD47 on Raji, Jurkat and MDA-231 tumor cells (human (endogenous in Raji, Jurkat, …, UniProt Q08722 19-323)); assay: FACS; MDA-231, pH 6.8, competition with bio-SIRPα-Fc
[2] = biological target: T1, cell-surface CD47 on Raji, Jurkat and …; assay: FACS; MDA-231, pH 7.4, competition with bio-SIRPα-Fc
[3] = biological target: T2, extracellular domain of CD47 fused to a His(×6)-Avi-tag (human); assay: SPR; pH 7.4
[4] = biological target: T1, cell-surface CD47 on Raji, Jurkat and …; assay: FACS; MDA-231, pH 7.4
[5] = biological target: T2, extracellular domain of CD47 fused to a …; assay: ELISA; pH 6.4
[6] = biological target: T2, extracellular domain of CD47 fused to a …; assay: ELISA; pH 7.2
[7] = biological target: T2, extracellular domain of CD47 fused to a …; assay: ELISA; pH 6.6
[8] = biological target: T2, extracellular domain of CD47 fused to a …; assay: ELISA; pH 7.6
[9] = biological target: T1, cell-surface CD47 on Raji, Jurkat and …; assay: FACS; Raji, pH 6.8
[10] = biological target: T1, cell-surface CD47 on Raji, Jurkat and …; assay: FACS; Jurkat, pH 7.4
[11] = biological target: T2, extracellular domain of CD47 fused to a …; assay: ELISA; pH 7.0
[12] = biological target: T1, cell-surface CD47 on Raji, Jurkat and …; assay: FACS; Raji, pH 6.8, competition with bio-SIRPα-Fc
[13] = biological target: T1, cell-surface CD47 on Raji, Jurkat and …; assay: FACS; MDA-231, pH 6.8
[14] = biological target: T2, extracellular domain of CD47 fused to a …; assay: SPR; pH 6.8
[15] = biological target: T3, full-length human CD47 stably expressed on CHO cells (CHO-hCD47) (human, UniProt Q08722 19-323); assay: FACS; pH 7.4, competition with bio-SIRPα-Fc
[16] = biological target: T2, extracellular domain of CD47 fused to a …; assay: ELISA; pH 6.8
[17] = biological target: T1, cell-surface CD47 on Raji, Jurkat and …; assay: FACS; Jurkat, pH 7.4, competition with bio-SIRPα-Fc
[18] = biological target: T1, cell-surface CD47 on Raji, Jurkat and …; assay: FACS; Raji, pH 7.4
[19] = biological target: T1, cell-surface CD47 on Raji, Jurkat and …; assay: FACS; Jurkat, pH 6.8
[20] = biological target: T3, full-length human CD47 stably expressed …; assay: FACS; pH 6.8
[21] = biological target: T1, cell-surface CD47 on Raji, Jurkat and …; assay: FACS; Raji, pH 7.4, competition with bio-SIRPα-Fc
[22] = biological target: T2, extracellular domain of CD47 fused to a …; assay: ELISA; pH 6.2
[23] = biological target: T3, full-length human CD47 stably expressed …; assay: FACS; pH 7.4
[24] = biological target: T3, full-length human CD47 stably expressed …; assay: FACS; pH 6.8, competition with bio-SIRPα-Fc
[25] = biological target: T1, cell-surface CD47 on Raji, Jurkat and …; assay: FACS; Jurkat, pH 6.8, competition with bio-SIRPα-Fc
[26] = biological target: T2, extracellular domain of CD47 fused to a …; assay: ELISA; pH 7.4

T3 sequence (Q08722 19-323): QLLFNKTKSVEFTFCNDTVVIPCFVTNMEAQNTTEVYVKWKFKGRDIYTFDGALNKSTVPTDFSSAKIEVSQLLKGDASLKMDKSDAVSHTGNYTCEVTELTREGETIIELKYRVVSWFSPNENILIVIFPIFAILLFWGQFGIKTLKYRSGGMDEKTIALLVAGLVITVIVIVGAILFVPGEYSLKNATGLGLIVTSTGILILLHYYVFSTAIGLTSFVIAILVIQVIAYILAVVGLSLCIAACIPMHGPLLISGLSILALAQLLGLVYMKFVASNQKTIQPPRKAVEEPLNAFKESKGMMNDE
T1 sequence (Q08722 19-323): as above
T2 sequence (chain, as listed by the source): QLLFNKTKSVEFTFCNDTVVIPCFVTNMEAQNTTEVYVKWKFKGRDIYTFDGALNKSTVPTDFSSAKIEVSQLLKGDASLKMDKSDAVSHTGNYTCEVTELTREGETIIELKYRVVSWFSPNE

Row | Binder | IC50 [1] [nM] | IC50 [2] [nM] | Kd [3] [nM] | EC50 [4] [nM] | EC50 [6] [nM] | EC50 [9] [nM] | EC50 [10] [nM] | EC50 [11] [nM] | IC50 [12] [nM] | EC50 [13] [nM] | IC50 [15] [nM] | EC50 [18] [nM] | EC50 [19] [nM] | EC50 [20] [nM] | EC50 [23] [nM] | IC50 [24] [nM] | IC50 [25] [nM] | EC50 [26] [nM] | other results
1 | BC31M5 (hIgG1 form) (antibody, V domains shown) VH: QVQLVQSGAEVKKPGASVKVSCKASGYTFTSYGISWVRQAPGQGLEWMGWISAYNGNTNYAQKLQGRVTMTTDTSTSTAYMELRSLRSDDTAVYYCARGTVYFDYWGQGTLVTVSS VL: EIVLTQSPATLSLSPGERATLSCRASQSLSRNHLAWYQQKPGQPPRLLIHWASTRESGVPDRFSGSGSGTDFTLTISSLQAEDVAVYYCQQHTQNTWTFGQGTKVEIK | 1.7 | 9.3 | 6.9 | 3.3 | 0.04 | 0.7 | 2 | 0.04 | 1.2 | 1.2 | 5.9 | 4 | 1.5 | 4.8 | 4.1 | 4.1 | 4.2 | 0.04 | EC50 [5]: 0.05 nM; EC50 [7]: 0.05 nM; EC50 [8]: 0.06 nM; Kd [14]: 3.6 nM; EC50 [16]: 0.04 nM; IC50 [17]: 17.2 nM; IC50 [21]: 6.7 nM; EC50 [22]: 0.06 nM
2 | BC31M4 (hIgG1 form) (antibody, V domains shown) VH: QVQLVQSGAEVKKPGASVKVSCKASGYTFTSYGISWVRQAPGQGLEWMGWISAYNGNTNYAQKLQGRVTMTTDTSTSTAYMELRSLRSDDTAVYYCARGAVYFDYWGQGTLVTVSS VL: EIVLTQSPATLSLSPGERATLSCRASQSLSRNHLAWYQQKPGQPPRLLIHWASTRESGVPDRFSGSGSGTDFTLTISSLQAEDVAVYYCQQHTQNTWTFGQGTKVEIK | 22.7 | ~507 | 457 | ~231 | 0.11 | 6.8 | ~131 | 0.04 | 19.9 | 8.5 | ~30.4 | ~92 | 1.54 | 4.8 | ~21.4 | 5.4 | 35 | 0.51 | 
3 | BC27 (hIgG1 form) (antibody, V domains shown) VH: QVQLVQSGAEVKKPGASVKVSCKASGYTFTSYGISWVRQAPGQGLEWMGWISAYNGNTNYAQKLQGRVTMTTDTSTSTAYMELRSLRSDDTAVYYCARGKVYFDYWGQGTLVTVSS VL: EIVLTQSPATLSLSPGERATLSCRASQSLSRNHLAWYQQKPGQPPRLLIHWASTRESGVPDRFSGSGSGTDFTLTISSLQAEDVAVYYCQQYYTASWTFGQGTKVEIK |  |  | 1170 |  |  |  |  |  |  |  |  |  |  |  |  |  |  |  | 
